System: K4 kissing-loop RNA reporter
Test: apparent KD of K4 kissing-loop reporter; higher = weaker reporter binding
Settings: Eterna round: R107
Experimental: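 RNA-MaP round R107: designed RNA switches with theophylline, tryptophan, arginine or FMN aptamers are transcribed on-chip within common flanks. They are titrated with a labelled K4 kissing-loop RNA reporter in RNA-MaP buffer (100 mM Tris pH 7.5, 80 mM KCl, 4 mM MgCl2), without ligand or with the indicated ligand. Median apparent KD per design.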

[1] = input ligand: theophylline 20 uM
[2] = input ligand: tryptophan 2.4 mM
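Further: bound reporter read as fluorescence of individual clusters on recovered sequencing chips by microscopy, with normalized cluster intensities fitted with a binding model.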

AUUAACCUUUUAGCUAUAUUUUUAUGUGAUACCAGACAUGGCAUAGUCCCUUGGCAGCACAUUAUAUUUACGAGUGAUGUUCGAA [JR_SSTheophyA_Sub026]
apparent KD of K4 kissing-loop reporter (input ligand: FMN 200 uM): 243 nM
apparent KD of K4 kissing-loop reporter (input ligand: arginine 13.2 mM): 250 nM
apparent KD of K4 kissing-loop reporter (input ligand: none): 261 nM
apparent KD of K4 kissing-loop reporter [1]: 271 nM
apparent KD of K4 kissing-loop reporter [2]: 194 nM

AUUAAUUUCAGAGGAUAUCGUUAUUUUUUAUAUUUUAUUCAUUUAUGCAGUGAUGUUGCUAUUAAUCGAGAAGGCUGAUUUAUAA [JR_ExcFMNB_Sub003]
apparent KD of K4 kissing-loop reporter (input ligand: FMN 200 uM): 85.5 nM
apparent KD of K4 kissing-loop reporter (input ligand: arginine 13.2 mM): 114 nM
apparent KD of K4 kissing-loop reporter (input ligand: none): 47.1 nM
apparent KD of K4 kissing-loop reporter [1]: 120 nM
apparent KD of K4 kissing-loop reporter [2]: 49.4 nM

AUUAGGCGAAGUGAUGUUUCAUAUAAUGGCAAGGAUAUGUCCUUACACAGAAGGUGCUCUUAGUCAGGUUAUAUUAGGACUGCUA [theeternabot_exclusion_KL_FMN_A_42]
apparent KD of K4 kissing-loop reporter (input ligand: FMN 200 uM): 446 nM
apparent KD of K4 kissing-loop reporter (input ligand: arginine 13.2 mM): 434 nM
apparent KD of K4 kissing-loop reporter (input ligand: none): 460 nM
apparent KD of K4 kissing-loop reporter [1]: 474 nM
apparent KD of K4 kissing-loop reporter [2]: 340 nM

AUUAUAAAGGCGGCCGCCACUAGUGAUGUUAGUGACUUAUGUAUUAUCAUAAGAAUAAAAUAAAAUAGGACCGGGCCAAAAUAUU [AstrosExTryB#3]
apparent KD of K4 kissing-loop reporter (input ligand: FMN 200 uM): 527 nM
apparent KD of K4 kissing-loop reporter (input ligand: arginine 13.2 mM): 384 nM
apparent KD of K4 kissing-loop reporter (input ligand: none): 452 nM
apparent KD of K4 kissing-loop reporter [1]: 448 nM
apparent KD of K4 kissing-loop reporter [2]: 483 nM

AUUCAUGAGUGAUGUUCAUCGGCAGGAGAUACCAGCGAGUUAACCCGCCCUUGGCAGCUCAAGUAUAGGGACUCUGGCAUCGCCU [theeternabot_exclusion_KL_Theo_A_18]
apparent KD of K4 kissing-loop reporter (input ligand: FMN 200 uM): 406 nM
apparent KD of K4 kissing-loop reporter (input ligand: arginine 13.2 mM): 374 nM
apparent KD of K4 kissing-loop reporter (input ligand: none): 547 nM
apparent KD of K4 kissing-loop reporter [1]: 405 nM
apparent KD of K4 kissing-loop reporter [2]: 369 nM

AUUCAUUUCAGAGGAUAUCGCUGGAGAGUGAUGUUCUCCCAUAGUCAGUGAUGUUGGCUAGCUAUGCGAGAAGGCUGUGGGUGGA [Same State FMN B GF 28]
apparent KD of K4 kissing-loop reporter (input ligand: FMN 200 uM): 143 nM
apparent KD of K4 kissing-loop reporter (input ligand: arginine 13.2 mM): 396 nM
apparent KD of K4 kissing-loop reporter (input ligand: none): 397 nM
apparent KD of K4 kissing-loop reporter [1]: 356 nM
apparent KD of K4 kissing-loop reporter [2]: 384 nM

AUUCGAUCAGUGAUGUUGAUCAAAGUCGAAGGAGCGGACGAAAGUCCAGGUAGGUCGCGACUACAAGGUGUUAAGACACCUCGAA [Spvincent t9 mod #OpenEnded]
apparent KD of K4 kissing-loop reporter (input ligand: FMN 200 uM): 246 nM
apparent KD of K4 kissing-loop reporter (input ligand: arginine 13.2 mM): 211 nM
apparent KD of K4 kissing-loop reporter (input ligand: none): 237 nM
apparent KD of K4 kissing-loop reporter [1]: 208 nM
apparent KD of K4 kissing-loop reporter [2]: 224 nM

AUUCUAUUGUGAAGGAGCGCGUAUAGUAGUGAUGUUACUAUAAUGAUAGAUACUUAAUUCUCGCAGGUAGGUCGCACAAUAUAUA [JR_Nu_ExcArginiB_Sub024]
apparent KD of K4 kissing-loop reporter (input ligand: FMN 200 uM): 117 nM
apparent KD of K4 kissing-loop reporter (input ligand: arginine 13.2 mM): 77.5 nM
apparent KD of K4 kissing-loop reporter (input ligand: none): 98.8 nM
apparent KD of K4 kissing-loop reporter [1]: 85 nM
apparent KD of K4 kissing-loop reporter [2]: 89.8 nM

AUUUAGACGAGUGAUGUUCGUGUUAUUACAGAGGAUAUGCGUGAUUGCAGAAGGCUGUAUUUAUAUAUGUUAUGUGGUUUUAAAA [whbob_Ex_FMNA__2th186]
apparent KD of K4 kissing-loop reporter (input ligand: FMN 200 uM): 79.7 nM
apparent KD of K4 kissing-loop reporter (input ligand: arginine 13.2 mM): 102 nM
apparent KD of K4 kissing-loop reporter (input ligand: none): 90.7 nM
apparent KD of K4 kissing-loop reporter [1]: 102 nM
apparent KD of K4 kissing-loop reporter [2]: 69.9 nM

CAGUUCUAUUCCGGUAGUGAUGUUACCAAGCGAGGACCGGUACGGCCGCCACUCGAGUGACAGACGUACUGGUAUCACCCGCUUC
apparent KD of K4 kissing-loop reporter (input ligand: FMN 200 uM): 159 nM
apparent KD of K4 kissing-loop reporter (input ligand: arginine 13.2 mM): 172 nM
apparent KD of K4 kissing-loop reporter (input ligand: none): 164 nM
apparent KD of K4 kissing-loop reporter [1]: 186 nM
apparent KD of K4 kissing-loop reporter [2]: 142 nM

CAUACGCAUGGAGGAUAUGAGAUUACUCAUAUCAUUUAAUAUUCUCAGUGAUGUUGAGAUUUAAACUCAGAAGGCCAUGUGUAUG [Ex FMN B 12]
apparent KD of K4 kissing-loop reporter (input ligand: FMN 200 uM): 262 nM
apparent KD of K4 kissing-loop reporter (input ligand: arginine 13.2 mM): 331 nM
apparent KD of K4 kissing-loop reporter (input ligand: none): 358 nM
apparent KD of K4 kissing-loop reporter [1]: 356 nM
apparent KD of K4 kissing-loop reporter [2]: 380 nM

CAUACGCAUGGAGGAUAUGGGAUUACUCAUAUUACCCUGUAACAGGUAUCUCAGUGAUGUUGAGACUCAGAAGGCCAUGUGUAUG [Ex FMN B 23]
apparent KD of K4 kissing-loop reporter (input ligand: FMN 200 uM): 615 nM
apparent KD of K4 kissing-loop reporter (input ligand: arginine 13.2 mM): 289 nM
apparent KD of K4 kissing-loop reporter (input ligand: none): 348 nM
apparent KD of K4 kissing-loop reporter [1]: 370 nM
apparent KD of K4 kissing-loop reporter [2]: 344 nM

CAUAGACAAGUGAUGUUUGUCAUAACCGAAGGAGCGUCUUUAAAGACAGGUAGGUCGCGGAUUAGUUAAGUUAUGAUUCUUUAUG [#19 K4 Arginine A Same State]
apparent KD of K4 kissing-loop reporter (input ligand: FMN 200 uM): 602 nM
apparent KD of K4 kissing-loop reporter (input ligand: arginine 13.2 mM): 492 nM
apparent KD of K4 kissing-loop reporter (input ligand: none): 704 nM
apparent KD of K4 kissing-loop reporter [1]: 659 nM
apparent KD of K4 kissing-loop reporter [2]: 453 nM

CAUAGGAAACUAUGUUUCUCUCUUACUGAAGGAGCGCGUGAAAACGCAGGUAGGUCGCAGAAUUUAAAAGAGAGUGAUGUUCUCA [Ex Arginine A K4 11]
apparent KD of K4 kissing-loop reporter (input ligand: FMN 200 uM): 431 nM
apparent KD of K4 kissing-loop reporter (input ligand: arginine 13.2 mM): 374 nM
apparent KD of K4 kissing-loop reporter (input ligand: none): 598 nM
apparent KD of K4 kissing-loop reporter [1]: 572 nM
apparent KD of K4 kissing-loop reporter [2]: 446 nM

CAUAUCAGAUAAGGAUAUAUGGCUCCUCGAGUCCAGUGAUGUUGGGCAACGUUUCAGUGGUGGAUUAUAGAAGGUAUUCACAGAC [theeternabot_sameState_KL_FMN_B_9]
apparent KD of K4 kissing-loop reporter (input ligand: FMN 200 uM): 297 nM
apparent KD of K4 kissing-loop reporter (input ligand: arginine 13.2 mM): 250 nM
apparent KD of K4 kissing-loop reporter (input ligand: none): 276 nM
apparent KD of K4 kissing-loop reporter [1]: 272 nM
apparent KD of K4 kissing-loop reporter [2]: 258 nM

CAUGGAGUGAUGCUCCAUGAUCGGGCUUGGCAGGAUAUGGGAUCUUCCAGAAGGGCCGAUCCCAGCGAGUGAUGUUCGCUGGUCU [Exclusion FMN A GF 27]
apparent KD of K4 kissing-loop reporter (input ligand: FMN 200 uM): 119 nM
apparent KD of K4 kissing-loop reporter (input ligand: arginine 13.2 mM): 107 nM
apparent KD of K4 kissing-loop reporter (input ligand: none): 113 nM
apparent KD of K4 kissing-loop reporter [1]: 116 nM
apparent KD of K4 kissing-loop reporter [2]: 108 nM

CCAUCGCUAUUCGAUACCAGUCAUCACAUCUUUGGUGUGAUAAAGGAGUGAUGUUCCCAAGACCCUUGGCAGCGAAUAGUGAUGG [Theophylline B K4 11]
apparent KD of K4 kissing-loop reporter (input ligand: FMN 200 uM): 293 nM
apparent KD of K4 kissing-loop reporter (input ligand: arginine 13.2 mM): 222 nM
apparent KD of K4 kissing-loop reporter (input ligand: none): 270 nM
apparent KD of K4 kissing-loop reporter [1]: 172 nM
apparent KD of K4 kissing-loop reporter [2]: 250 nM

CCAUCGCUAUUCGAUACCAGUCUUUUUUAUUUAUAAAAUCUGCAAAGGAGUGAUGUUCCAGACCCUUGGCAGCGAAUAGUGAUGG [Theophylline B K4 3]
apparent KD of K4 kissing-loop reporter (input ligand: FMN 200 uM): 401 nM
apparent KD of K4 kissing-loop reporter (input ligand: arginine 13.2 mM): 441 nM
apparent KD of K4 kissing-loop reporter (input ligand: none): 464 nM
apparent KD of K4 kissing-loop reporter [1]: 570 nM
apparent KD of K4 kissing-loop reporter [2]: 459 nM

CCAUUCUUUUACGAUACCAGUUUAAUAUAUUUAUUCAUAACCCUUGCCGAGUGAUGUUCGGACCCUUGGCAGCGUUUGCGAGAGG [lliltkmullin]
apparent KD of K4 kissing-loop reporter (input ligand: FMN 200 uM): 303 nM
apparent KD of K4 kissing-loop reporter (input ligand: arginine 13.2 mM): 308 nM
apparent KD of K4 kissing-loop reporter (input ligand: none): 392 nM
apparent KD of K4 kissing-loop reporter [1]: 404 nM
apparent KD of K4 kissing-loop reporter [2]: 239 nM

CCCGGGUCGUCAGGAUAUGAGUGCAGUGAUGUUGCACGGGUCUUUGCAGGCCCUGGUGAGGCGUACUCAGAAGGGACGCCAGGUC [Atazazaed]
apparent KD of K4 kissing-loop reporter (input ligand: FMN 200 uM): 250 nM
apparent KD of K4 kissing-loop reporter (input ligand: arginine 13.2 mM): 124 nM
apparent KD of K4 kissing-loop reporter (input ligand: none): 145 nM
apparent KD of K4 kissing-loop reporter [1]: 130 nM
apparent KD of K4 kissing-loop reporter [2]: 133 nM

CCCGUGGGUUCGAGAGGGCUUGUGGGAAGUAAGGAUAUUUAGGGAGAAAGAAGGUACUAUAGAAUAUAGUGAUGUUAUAUAUGGG [#07 K4 FMN A Same State]
apparent KD of K4 kissing-loop reporter (input ligand: FMN 200 uM): 402 nM
apparent KD of K4 kissing-loop reporter (input ligand: arginine 13.2 mM): 435 nM
apparent KD of K4 kissing-loop reporter (input ligand: none): 454 nM
apparent KD of K4 kissing-loop reporter [1]: 347 nM
apparent KD of K4 kissing-loop reporter [2]: 203 nM

From the supplement of paper PMC9170038
